The values that follow are results of earlier work, collected in paper PMC7752828.

The target of data set [1] is Fibrin(ogen) gamma' chain γ'-domain (Homo sapiens) (UniProt P02679).
For data set [2], the target named is Fibrin E-domain E-domain (Homo sapiens) (UniProt P02671).

Regarding Thrombin (from UniProt P00734), the Kd in data set [1] is 100 nM; in data set [2], 2800 nM.
